Measurements as given in PMC10049731, “Legumain Functions as a Transient TrkB Sheddase” (International Journal of Molecular Sciences, 2023).

Assays:
[1] = molecular target: legumain-processed TrkB Ig2 domain (rat); test: MST; in solution; TrkB variant (intact or legumain-processed) labelled with NT-647 RED and kept constant, unlabelled BDNF (20.5 uM) in a 16-step 1:2 dilution series; 1x PBS pH 7.4, 0.005% Tween 20; 10 min at RT; Monolith NT.115
[2] = molecular target: TrkB Ig2 domain (His283-Glu428) (rat); test: as above
[3] = molecular target: T1, legumain-processed TrkB ectodomain (rat, UniProt Q63604-1 29-391, glycosylated; labelled with NT-647 RED dye in the MST); test: as above; conditions: both partners purified
T1 construct: TrkB, rat, ectodomain construct Ser29-Glu428 cut by legumain in the membrane linker; dominant cleavage site after Asn391, minor sites after Asp385 and Asn389, so the C-terminus is a mixture; C-terminal limit is that of the dominant cleavage site (Asn391); the His6 tag is lost with the cut fragment; also called legumain-processed TrkB ECD; processed TrkB ECD; source: HEK293S, purified (Ni-NTA), …
T1 sequence (Q63604 29-391): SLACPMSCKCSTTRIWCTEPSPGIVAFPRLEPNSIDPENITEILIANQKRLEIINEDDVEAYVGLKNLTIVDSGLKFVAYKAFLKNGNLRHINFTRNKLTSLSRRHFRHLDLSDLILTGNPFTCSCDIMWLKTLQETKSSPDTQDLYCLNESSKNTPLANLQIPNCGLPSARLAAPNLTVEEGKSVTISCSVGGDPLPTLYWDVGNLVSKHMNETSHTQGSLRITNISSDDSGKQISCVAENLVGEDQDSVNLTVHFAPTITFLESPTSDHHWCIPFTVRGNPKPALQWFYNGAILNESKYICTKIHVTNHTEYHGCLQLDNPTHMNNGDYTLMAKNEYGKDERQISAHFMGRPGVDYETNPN

[4] = molecular target: T2, TrkB ectodomain (Ser29-Glu428) (rat, UniProt Q63604-1 29-428, several glycosylation forms; labelled with NT-647 RED dye in the MST set-up with labelled TrkB); test: as above; conditions: both partners purified
T2 construct: Secreted by way of the pHLsec vector; also called TrkB ECD; full-length ectodomain; source: HEK293S, transfected (pHLsec), secreted into medium, purified (Ni-NTA); not shown: His6, C-terminal, kept
T2 sequence (Q63604 29-428): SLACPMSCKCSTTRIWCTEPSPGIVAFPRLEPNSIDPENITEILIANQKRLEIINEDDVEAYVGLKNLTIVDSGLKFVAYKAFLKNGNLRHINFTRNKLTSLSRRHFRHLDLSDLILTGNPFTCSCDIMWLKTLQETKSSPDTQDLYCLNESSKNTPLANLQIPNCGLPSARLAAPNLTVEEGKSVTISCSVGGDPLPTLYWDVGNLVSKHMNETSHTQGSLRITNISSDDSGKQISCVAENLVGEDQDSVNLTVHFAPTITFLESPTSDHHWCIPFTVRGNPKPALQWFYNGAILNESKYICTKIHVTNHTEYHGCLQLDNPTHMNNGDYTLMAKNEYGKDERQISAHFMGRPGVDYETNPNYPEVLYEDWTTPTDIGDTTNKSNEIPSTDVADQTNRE

[5] = molecular target: the molecule itself; test: dynamic light scattering; BDNF alone; Figure S4C; conditions not shown
[6] = molecular target: TrkB Ig2 domain (His283-Glu428) (rat); test: MST; in solution; TrkB ECD or Ig2 with proBDNF; which partner was labelled is not told; MST buffer 1x PBS pH 7.4, 0.005% Tween 20
[7] = molecular target: T2, TrkB ectodomain (Ser29-Glu428); test: as above; conditions: both partners purified

Binder	Kd [1] [nM]	Kd [2] [nM]	Kd [3] [nM]	Kd [4] [nM]	stoichiometry N [5]	Kd [6] [nM]	Kd [7] [nM]
Brain-derived neurotrophic factor (BDNF), mature (His131-Arg249) (ligand, rat, UniProt P23363 131-249, looked up, disulfides Cys143-Cys210, Cys188-Cys239, Cys199-Cys241; labelled with NT-647 RED dye in the MST set-up with labelled BDNF, mature BDNF, cut from proBDNF by furin, His131-Arg249; The species rests on the legend 'Preparation of rat TrkB and proBDNF'; the printed residue numbers fit a 249-residue precursor; also called mature BDNF) HSDPARRGELSVCDSISEWVTAADKKTAVDMSGGTVTVLEKVPVSKGQLKQYFYETKCNPMGYTKEGCRGIDKRHWNSQCRTTQSYVRALTMDSKKRIGWRFIRIDTSCVCTLTIKRGR	300	67	188 ± 82	106 ± 44	2		
proBDNF (ligand, rat, UniProt P23363 19-249, looked up, proBDNF, the pro-form of brain-derived neurotrophic factor; also called pro-form of BDNF; source: E. coli Rosetta 2 (DE3), inclusion bodies, folded in vitro, purified (SP-sepharose)) APMKEANVHGQGNLAYPAVRTHGTLESVNGPRAGSRGLTTTSLADTFEHVIEELLDEDQKVRPNEENHKDADLYTSRVMLSSQVPLEPPLLFLLEEYKNYLDAANMSMRVRRHSDPARRGELSVCDSISEWVTAADKKTAVDMSGGTVTVLEKVPVSKGQLKQYFYETKCNPMGYTKEGCRGIDKRHWNSQCRTTQSYVRALTMDSKKRIGWRFIRIDTSCVCTLTIKRGR						441	306
